Measurements: US20170204172A1 (IMMUNDIAGNOSTIK, published 2017)

T1: human bone sialoprotein (BSP) in plasma (human, UniProt P21815 17-317, phosphorylated serine at positions 31, 67, 74, 75, 94, 100, 149, 280; sulphated tyrosine; multiple complex glycosylation (as described for human BSP))
T1 construct: Native BSP as present in human plasma; also called human BSP; hBSP
T1 sequence (looked up): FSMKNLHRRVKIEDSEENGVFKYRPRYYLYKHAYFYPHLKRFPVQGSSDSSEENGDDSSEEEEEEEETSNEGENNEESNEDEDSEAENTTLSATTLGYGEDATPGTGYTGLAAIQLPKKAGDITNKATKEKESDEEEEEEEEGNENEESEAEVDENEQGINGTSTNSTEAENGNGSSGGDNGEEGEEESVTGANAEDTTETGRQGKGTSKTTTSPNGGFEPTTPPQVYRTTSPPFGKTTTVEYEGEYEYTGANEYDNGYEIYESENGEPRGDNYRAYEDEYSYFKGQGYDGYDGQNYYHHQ


Key:
[1] = target: T1, human bone sialoprotein (BSP) in plasma; test: titration and competition experiments
[2] = target: T1, human bone sialoprotein (BSP) in plasma; test: screening of a phagemid single chain antibody library with peptide antigen and human BSP in plasma
Description: We screened differentially a synthetic human antibody library for an antibody reacting with synthetic peptide epitopes derived and common to rat or human BSP which we assumed being accessible in plasma. Moreover, we screened a proprietary synthetic human antibody library (mAB-Factory GmbH, Braunschweig, DE), prepared in accordance with DE 4122599 C2 and WO 93/01288 (PCT/EP92/01524), for phagemid-expressed single chain antibodies binding to BSP peptide epitopes with a soluble peptide antigen as indicated and with human BSP in plasma. A respective full human antibody (AF165R4.2-E2) specific for human BSP in plasma was obtained and reconstructed.

Row | Binder | binding result [1] | binding result [2]
1 | chimeric version of the rat mAb anti-BSP_IDK1 (antibody, V domains shown, The entries include a signal peptide that is marked only by underlining in a drawing; Kappa light chain; also called chimeric version of a rat mAB - IDK 1; human chimeric version of a monoclonal rat antibody) VH: QVQLQESGAELVRPGSSVKISCKASGYTFTDFYMHWVKQGPEQGLVWIGRINPANGNTIYAEKFKTKATLTADKSSNTAYMQLSSLTSEDTATYFCSSAYWGQGTLVTVSS VL: DILLTQTPPTSSATIGQSVSISCRSSQSLLDNDGNTYTLYWYLQRPTQSPQLLIYLVSKLRSGVPNRFSGSGSGTDFTLKISGVEAEDLGVYYCVQGTHDPWTFGGGTKLELKR | binds | –
2 | humanized antibody anti-BSP_IDK3 (clone AF177.3) (antibody, V domains shown, Kappa light chain; also called Humanized mAB of IDK 1) VH: QVQLQQSGAEVVKPGASVKVSCKASGYTFTDFYMHWVKQAPEQGLEWMGIINPANGNTIYAEKFQGRVTMTADKSTNTVYMELSSLTSEDTATYYCSSAYWGQGTLVTVSS VL: DIVMTQTPPSSSVTIGQPASISCKSSQSLLDNDGNTYLYWYLQKPGQSPQLLIYLVSKRRSGVPDRFSGSGSGTDFTLKISGVEAEDVGVYYCVQGTHDPWTFGGGTKVEIKR | binds | –
3 | anti-BSP_IDK2 human mAb (clone AF165R4.2-E2) (antibody, V domains shown, The entries include a signal peptide that is marked only by underlining in a drawing; Lambda light chain; also called fully human anti-hBSP antibody) VH: not shown VL: QLVLTQSPSASGTPGQRVTISCSGSSSNIGSSYVYWYQQLPGAAPKLLIYRNSQRPPGVPDRFSSSKSGTSASLAISGLRSEDEADYYCATWDGSLSGWVFGGGTKLTVLG | – | binds
